Measured values from publication doi:10.1101/2025.10.27.684941.

Key:
[1] = biological target: Venus-PDZ1 (ZO-1) (human) (UniProt Q07157); assay: co-IP
[2] = biological target: biotinylated C-terminal Cx36 peptide, D317A (UniProt O54851); assay: pull-down
[3] = biological target: biotinylated C-terminal Cx36 peptide, D317F (UniProt O54851); assay: pull-down

Chain of UniProt Q07157 (Q07157 whole entry): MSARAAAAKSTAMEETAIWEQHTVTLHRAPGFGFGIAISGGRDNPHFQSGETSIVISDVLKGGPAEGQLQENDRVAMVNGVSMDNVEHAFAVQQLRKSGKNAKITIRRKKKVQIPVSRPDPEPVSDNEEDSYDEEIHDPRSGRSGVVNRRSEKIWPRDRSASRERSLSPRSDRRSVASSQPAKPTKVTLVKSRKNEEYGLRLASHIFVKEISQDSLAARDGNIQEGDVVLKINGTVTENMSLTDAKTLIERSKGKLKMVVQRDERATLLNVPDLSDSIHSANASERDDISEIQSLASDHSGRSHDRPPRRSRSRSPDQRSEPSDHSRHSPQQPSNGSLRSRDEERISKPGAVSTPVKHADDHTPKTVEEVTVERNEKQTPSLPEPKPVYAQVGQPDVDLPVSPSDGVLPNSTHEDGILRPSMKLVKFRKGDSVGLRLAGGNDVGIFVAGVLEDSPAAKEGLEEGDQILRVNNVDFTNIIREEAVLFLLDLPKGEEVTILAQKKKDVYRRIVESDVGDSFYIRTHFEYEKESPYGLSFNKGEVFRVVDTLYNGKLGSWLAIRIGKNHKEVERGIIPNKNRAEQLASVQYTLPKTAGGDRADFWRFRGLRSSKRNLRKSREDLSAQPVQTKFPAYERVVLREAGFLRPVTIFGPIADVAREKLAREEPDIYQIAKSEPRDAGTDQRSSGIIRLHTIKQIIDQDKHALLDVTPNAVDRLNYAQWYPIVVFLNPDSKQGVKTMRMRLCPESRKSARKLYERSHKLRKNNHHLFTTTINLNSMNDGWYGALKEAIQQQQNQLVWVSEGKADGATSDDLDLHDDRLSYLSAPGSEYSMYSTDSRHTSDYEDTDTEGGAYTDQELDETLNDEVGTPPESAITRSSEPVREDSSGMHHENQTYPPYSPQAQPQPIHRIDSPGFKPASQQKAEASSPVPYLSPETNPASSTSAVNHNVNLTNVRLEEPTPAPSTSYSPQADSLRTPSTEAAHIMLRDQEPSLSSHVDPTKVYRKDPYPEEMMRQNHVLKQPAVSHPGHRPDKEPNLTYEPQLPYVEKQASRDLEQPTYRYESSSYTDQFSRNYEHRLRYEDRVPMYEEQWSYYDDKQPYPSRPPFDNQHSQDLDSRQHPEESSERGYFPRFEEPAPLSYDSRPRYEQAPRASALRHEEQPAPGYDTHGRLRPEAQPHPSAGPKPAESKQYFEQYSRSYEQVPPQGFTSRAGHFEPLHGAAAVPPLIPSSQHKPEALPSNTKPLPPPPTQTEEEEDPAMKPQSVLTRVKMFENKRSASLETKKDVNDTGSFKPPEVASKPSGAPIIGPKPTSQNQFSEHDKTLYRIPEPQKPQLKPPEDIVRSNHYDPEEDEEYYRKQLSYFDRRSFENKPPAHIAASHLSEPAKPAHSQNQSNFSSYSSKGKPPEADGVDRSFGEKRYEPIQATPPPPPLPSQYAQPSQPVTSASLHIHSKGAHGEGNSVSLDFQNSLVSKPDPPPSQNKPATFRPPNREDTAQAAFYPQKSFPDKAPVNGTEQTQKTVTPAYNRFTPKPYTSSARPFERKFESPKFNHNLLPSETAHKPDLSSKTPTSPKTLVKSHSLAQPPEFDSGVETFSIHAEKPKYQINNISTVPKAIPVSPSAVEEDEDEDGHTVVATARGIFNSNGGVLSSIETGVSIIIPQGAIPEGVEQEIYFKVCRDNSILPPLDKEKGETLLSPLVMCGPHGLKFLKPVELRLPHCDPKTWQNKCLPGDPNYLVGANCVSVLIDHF

| Substance | fold increase in binding over wild type Cx36 [1] | fold increase in binding over the wild-type peptide [2] | fold increase in binding over the wild-type peptide [3] |
| --- | --- | --- | --- |
| Cx36 D317A (from UniProt O54851 1-321) (natural protein) | 5 to 7 times | – | – |
| Cx36 D317F (from UniProt O54851 1-321) (natural protein) | 5 to 7 times | – | – |
| His-Venus-PDZ1 (ZO-1) (domain or fragment) | – | 5 fold | 10 fold |
